Results from IntAct's records for PubMed 17431395.

Target: T1, goga2_human GOLGA2 (UniProt Q08379)
T1 sequence: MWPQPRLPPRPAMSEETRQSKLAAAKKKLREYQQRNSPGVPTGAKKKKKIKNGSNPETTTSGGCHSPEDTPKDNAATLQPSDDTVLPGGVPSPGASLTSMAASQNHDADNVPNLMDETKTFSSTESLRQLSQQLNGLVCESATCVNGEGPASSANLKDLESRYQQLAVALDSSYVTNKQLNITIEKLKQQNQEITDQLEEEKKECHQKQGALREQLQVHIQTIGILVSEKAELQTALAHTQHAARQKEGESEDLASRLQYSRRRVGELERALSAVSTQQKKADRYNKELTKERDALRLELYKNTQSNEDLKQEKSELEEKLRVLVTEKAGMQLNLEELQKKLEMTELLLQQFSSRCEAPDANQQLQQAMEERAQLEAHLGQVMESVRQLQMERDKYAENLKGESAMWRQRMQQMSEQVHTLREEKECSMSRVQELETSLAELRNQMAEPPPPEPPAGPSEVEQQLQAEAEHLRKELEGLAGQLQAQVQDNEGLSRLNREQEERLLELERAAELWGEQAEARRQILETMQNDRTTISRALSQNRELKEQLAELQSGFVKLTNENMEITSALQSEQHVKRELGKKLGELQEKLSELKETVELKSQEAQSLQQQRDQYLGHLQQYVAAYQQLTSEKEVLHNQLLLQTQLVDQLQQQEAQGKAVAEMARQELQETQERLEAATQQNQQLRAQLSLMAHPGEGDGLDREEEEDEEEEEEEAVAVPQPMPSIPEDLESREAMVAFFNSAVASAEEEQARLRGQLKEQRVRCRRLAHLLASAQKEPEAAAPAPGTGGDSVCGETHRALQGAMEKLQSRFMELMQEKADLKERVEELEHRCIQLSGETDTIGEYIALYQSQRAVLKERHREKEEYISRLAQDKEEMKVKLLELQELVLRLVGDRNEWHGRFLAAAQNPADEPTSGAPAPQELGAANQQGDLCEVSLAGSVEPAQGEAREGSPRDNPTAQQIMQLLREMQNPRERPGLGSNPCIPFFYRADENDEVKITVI

effect of a mutation on the interaction: disrupting interaction
Substance: Transthyretin (Homo sapiens) (from UniProt P02766) D38E
